Like-named read-outs stand apart in the source and are kept apart here.

In data set [1] the target is HpDprA(5-217), C-terminally truncated Helicobacter pylori DprA (H. pylori strain 26695) (UniProt B5ZAA1). Nature of the data set: SEC. On the technique in general: Size exclusion chromatography separates by hydrodynamic size, large species first.
For data set [2] the target is unchanged. Nature of the data set: static light scattering.
Data set [3] has the same target. Nature of the data set: crystal structure.
Data set [4] has as its target Full-length Helicobacter pylori DprA (DNA processing protein A, HP0333) (H. pylori strain 26695) (UniProt B5ZAA1). The data set is described as follows: SEC.
Data set [5] concerns the target HpDprA(5-225), C-terminally truncated Helicobacter pylori DprA (H. pylori strain 26695) (UniProt B5ZAA1).
For data set [6] the target is unchanged. Nature of the data set: crystal structure.
Data set [7] concerns the target T1, HpDprA(5-217)WT (Helicobacter pylori 26695, UniProt O25100 5-217).
T1 sequence: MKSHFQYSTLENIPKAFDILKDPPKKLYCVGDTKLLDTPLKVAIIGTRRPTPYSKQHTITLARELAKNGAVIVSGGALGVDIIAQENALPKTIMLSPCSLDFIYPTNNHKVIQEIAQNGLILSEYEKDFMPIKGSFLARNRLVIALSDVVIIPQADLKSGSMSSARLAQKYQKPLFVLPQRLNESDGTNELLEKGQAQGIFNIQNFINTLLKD
The data set is described as follows: MST.

For data set [8], the target named is T1, HpDprA(5-217)WT. Nature of the data set: EMSA. For orientation: Mobility shift assays separate free from complexed probe on a gel.
The target of data set [9] is T1, HpDprA(5-217)WT. Nature of the data set: SEC/SLS.
Data set [10] addresses T1, HpDprA(5-217)WT. The data set is described as follows: EMSA. The source holds these as a separate data set.
For the next data set, the target named is T2, HpDprA full-length (Helicobacter pylori 26695, UniProt O25100 1-270).
T2 sequence: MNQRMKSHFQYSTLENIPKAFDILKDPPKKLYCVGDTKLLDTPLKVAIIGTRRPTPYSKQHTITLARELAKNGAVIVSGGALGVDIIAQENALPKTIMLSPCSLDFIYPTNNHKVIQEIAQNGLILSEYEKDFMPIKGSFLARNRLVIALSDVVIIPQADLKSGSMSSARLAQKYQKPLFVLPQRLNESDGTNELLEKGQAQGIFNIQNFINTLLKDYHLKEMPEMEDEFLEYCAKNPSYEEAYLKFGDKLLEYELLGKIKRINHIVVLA
Nature of the data set: EMSA.

A word on the stoichiometry N: it is a count of units in the complex or per binding partner. Regarding “HpDprA(5-217), C-terminally truncated Helicobacter pylori DprA (from UniProt B5ZAA1 5-217) (domain or fragment)”, the stoichiometry N in data set [1], in data set [2] and in [3] was 2 throughout.

“Full-length Helicobacter pylori DprA (DNA processing protein A, HP0333) (from UniProt B5ZAA1 1-266) (natural protein)” came in with a stoichiometry N in data set [4] of 2.

For “HpDprA(5-225), C-terminally truncated Helicobacter pylori DprA (from UniProt B5ZAA1 5-225) (domain or fragment)”, the stoichiometry N in data set [5] and in data set [6] was 2 throughout.

For TTTTTTTTTT (ssDNA) [dT10], in the data set with HpDprA(5-217)WT [7], the binding result is recorded as “no binding”.

For TTTTTTTTTTTTTTTTTTTTTTTTTTTTTTTTTTTTTTTT (ssDNA) [dT40], the binding result with HpDprA(5-217)WT [8] was “binds”.

B1: dT60 (ssDNA)
DNA: TTTTTTTTTTTTTTTTTTTTTTTTTTTTTTTTTTTTTTTTTTTTTTTTTTTTTTTTTTTT
For the molecule B1, the binding result with HpDprA(5-217)WT [9] is reported as “binds”.

TTTTTTTTTTTTTTTTTTTT (ssDNA) [dT20]: the binding result with HpDprA(5-217)WT [10] is “binds”.

Regarding TACCTAACTGGATGAATCTGAGAACTACTGTGAAT (ssDNA) [dR35], the binding result with HpDprA full-length is recorded as “binds”.

With TTTTTT (ssDNA) [dT6], the binding result with HpDprA(5-217)WT [7] was “no binding”.

As usually defined, the Kd is a measure of binding affinity in units of concentration. In the data set with HpDprA(5-217)WT [7], AAAAAAAAAAAAAAAAAAAAAAAAAAAAAAAAAAA (ssDNA) [dA35] yielded a Kd of 1200 ± 35.3 nM.

With CCACAACTGGATGATGCGGCGAAGTACTGT (ssDNA) [dR30], the Kd in the data set with HpDprA(5-217)WT [7] came out at 370 ± 8.82 nM.

Turning to TTTTTTTTTTTTTTTTTTTTTTTTTTTTTTTTTTTTTTTTTTTTTTTTTT (ssDNA) [dT50], the binding result with HpDprA(5-217)WT [8] is on record as “binds”.

B2: dsDNA30 (dsDNA)
DNA 1: CCACAACTGGATGATGCGGCGAAGTACTGT
DNA 2: ACAGTACTTCGCCGCATCATCCAGTTGTGG
In the case of B2, the Kd in the data set with HpDprA(5-217)WT [7] was determined as 831 ± 8.48 nM.

Values taken from article PMC3950713.
